# T1: Nrd1 307-491 K380A (Saccharomyces cerevisiae, UniProt P53617 307-491, K380A)
# T1 sequence: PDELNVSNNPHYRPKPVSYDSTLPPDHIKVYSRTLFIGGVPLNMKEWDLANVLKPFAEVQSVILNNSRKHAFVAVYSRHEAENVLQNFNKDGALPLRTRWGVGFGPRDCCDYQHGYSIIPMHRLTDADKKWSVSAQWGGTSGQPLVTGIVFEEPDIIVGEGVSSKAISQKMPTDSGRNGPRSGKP
# T2: Nrd1 307-491 G344A (Saccharomyces cerevisiae, UniProt P53617 307-491, G344A)
# T2 sequence: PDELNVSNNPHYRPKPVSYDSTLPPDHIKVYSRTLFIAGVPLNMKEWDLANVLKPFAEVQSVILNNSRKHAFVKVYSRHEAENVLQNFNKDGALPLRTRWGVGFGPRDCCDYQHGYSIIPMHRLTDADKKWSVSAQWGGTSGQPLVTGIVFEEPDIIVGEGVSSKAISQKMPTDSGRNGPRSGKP
# T3: Nrd1 307-491 N349A (Saccharomyces cerevisiae, UniProt P53617 307-491, N349A)
# T3 sequence: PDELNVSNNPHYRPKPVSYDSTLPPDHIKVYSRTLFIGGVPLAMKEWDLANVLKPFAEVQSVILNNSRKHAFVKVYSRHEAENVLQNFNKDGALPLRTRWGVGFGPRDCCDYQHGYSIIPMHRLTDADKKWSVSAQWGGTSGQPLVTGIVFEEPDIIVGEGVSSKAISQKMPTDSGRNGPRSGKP
# T4: Nrd1 307-491 Y382A (Saccharomyces cerevisiae, UniProt P53617 307-491, Y382A)
# T4 sequence: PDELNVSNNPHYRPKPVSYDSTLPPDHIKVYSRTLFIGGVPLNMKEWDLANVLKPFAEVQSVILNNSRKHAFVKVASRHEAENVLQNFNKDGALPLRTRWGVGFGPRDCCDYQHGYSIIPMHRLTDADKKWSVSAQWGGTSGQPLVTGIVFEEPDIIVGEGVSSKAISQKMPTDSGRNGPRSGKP
# T5: Nrd1 307-491 G407A (Saccharomyces cerevisiae, UniProt P53617 307-491, G407A)
# T5 sequence: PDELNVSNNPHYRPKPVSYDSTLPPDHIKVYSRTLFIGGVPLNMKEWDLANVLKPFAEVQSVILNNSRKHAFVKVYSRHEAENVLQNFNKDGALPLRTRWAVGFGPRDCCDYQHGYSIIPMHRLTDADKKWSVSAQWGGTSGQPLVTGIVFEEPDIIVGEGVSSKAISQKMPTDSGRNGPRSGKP
# T6: Nrd1 307-491 H376A (Saccharomyces cerevisiae, UniProt P53617 307-491, H376A)
# T6 sequence: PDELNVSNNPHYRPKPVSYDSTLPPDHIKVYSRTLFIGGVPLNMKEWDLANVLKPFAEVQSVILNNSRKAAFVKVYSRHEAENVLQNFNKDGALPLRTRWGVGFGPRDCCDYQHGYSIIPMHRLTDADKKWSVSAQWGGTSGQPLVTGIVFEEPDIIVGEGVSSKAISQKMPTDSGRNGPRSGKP
# T7: Nrd1 307-491 G409A (Saccharomyces cerevisiae, UniProt P53617 307-491, G409A)
# T7 sequence: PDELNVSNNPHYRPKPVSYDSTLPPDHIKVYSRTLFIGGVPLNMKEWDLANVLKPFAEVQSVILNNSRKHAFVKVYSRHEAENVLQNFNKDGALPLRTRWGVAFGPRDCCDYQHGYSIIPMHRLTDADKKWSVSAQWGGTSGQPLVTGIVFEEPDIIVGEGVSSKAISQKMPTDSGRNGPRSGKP
# T8: Nrd1 307-491 R405A (Saccharomyces cerevisiae, UniProt P53617 307-491, R405A)
# T8 sequence: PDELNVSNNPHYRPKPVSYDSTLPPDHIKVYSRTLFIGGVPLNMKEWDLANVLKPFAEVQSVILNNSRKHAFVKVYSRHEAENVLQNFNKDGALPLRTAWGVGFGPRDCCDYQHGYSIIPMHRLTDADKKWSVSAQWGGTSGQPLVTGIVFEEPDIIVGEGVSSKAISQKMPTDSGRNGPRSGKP
# What was measured:
# Conditions in all cases: protein: recombinant; tags: C-terminal His6; label: 5' fluorescein or TAMRA (FA); unlabeled (NMR)
# Nrd1 307-491 K380A = biological target: T1, Nrd1 307-491 K380A; test: fluorescence anisotropy; text says binding abolished; FA: 10 nM RNA, 50 mM sodium phosphate pH 8, 150 mM NaCl, 10 mM beta-mercaptoethanol, 20 C (protein stock in 300 mM NaCl); NMR: same buffer with 300 mM NaCl, 20
# Nrd1 307-491 G344A = biological target: T2, Nrd1 307-491 G344A; test: fluorescence anisotropy; FA: 10 nM RNA, 50 mM sodium phosphate pH 8, 150 mM NaCl, 10 mM beta-mercaptoethanol, 20 C (protein stock in 300 mM NaCl); NMR: same buffer with 300 mM NaCl, 20
# Nrd1 307-491 N349A = biological target: T3, Nrd1 307-491 N349A; test: as above
# Nrd1 307-491 Y382A = biological target: T4, Nrd1 307-491 Y382A; test: as above
# Nrd1 307-491 G407A = biological target: T5, Nrd1 307-491 G407A; test: as above
# Nrd1 307-491 H376A = biological target: T6, Nrd1 307-491 H376A; test: as above
# Nrd1 307-491 G409A = biological target: T7, Nrd1 307-491 G409A; test: as above
# Nrd1 307-491 R405A = biological target: T8, Nrd1 307-491 R405A; test: as above
binder,measurement,setting,value
GUAA (ssRNA),Kd,Nrd1 307-491 K380A,442 ± 24.7 µM
same,Kd,Nrd1 307-491 G344A,80.8 ± 2.2 µM
same,Kd,Nrd1 307-491 N349A,10.2 ± 0.5 µM
same,Kd,Nrd1 307-491 Y382A,32.1 ± 1.3 µM
same,Kd,Nrd1 307-491 G407A,13.9 ± 1.7 µM
same,Kd,Nrd1 307-491 H376A,59.1 ± 2.6 µM
same,Kd,Nrd1 307-491 G409A,157 ± 7.7 µM
same,Kd,Nrd1 307-491 R405A,17.3 ± 0.9 µM

# Reference: paper PMC4081072, “Structure and semi-sequence-specific RNA binding of Nrd1”
